Biological target: polypeptide with a terminal leucine residue (rest of sequence not given)
Test: single-molecule dwell time analysis; panel Leu; filtered 0.00s<=dur<=20.00s and magnitude above baseline > 15.0

Work on Synechococcus elongatus ClpS2 yielded a mean pulse duration (dashed line of the distribution) of 0.35 s.
